The series has as its system Saccharomyces cerevisiae. Kind of series: protein stability index of tFT-peptide fusion (C-terminal peptide) (PSI (0-1 scale)); higher = more stable (slower turnover). Particulars: temperature: 30 C. The protocol: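 MPS profiling in S. cerevisiae of the yeast C-terminome library: the last 12 aa of each annotated ORF are fused to the C-terminus of a sfGFP-mCherry timer, after a GGGS linker. Cells are FACS-sorted into 8 mCherry/sfGFP bins and deep-sequenced. PSI runs from 0 (unstable) to 1 (stable); wild type and das1Δ backgrounds, two technical replicates each.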

Setting [1] is: genetic background: das1 deletion.

± gives the standard deviation of the averaged measurements.

Regarding GARPPKNEARII [YBL036C C-terminal 12 aa], the protein stability index is, setting by setting: under setting [1], 0.694 ± 0.011; (genetic background: wild type) 0.677 ± 0.038.
In the same order, the values of GCDLDISYAKRL [HRB1 C-terminal 12 aa] are 0.7155 ± 0.0028 and 0.695 ± 0.035.
The corresponding values for GCGCNCPEMFDA [MTC5 C-terminal 12 aa] are 0.6906 ± 0.0026 and 0.695 ± 0.029.
In the same order, the values of GDEEDPNEEAAF [RPC31 C-terminal 12 aa] are 0.692 ± 0.01 and 0.673 ± 0.027.
In the case of GDSDNVVKRLRK [URB1 C-terminal 12 aa], the protein stability index under setting [1] was 0.686 ± 0.018 and the protein stability index (genetic background: wild type) was 0.707 ± 0.016.
GECVLTKNNKFT [ATG21 C-terminal 12 aa]: the protein stability index is, setting by setting: under setting [1], 0.672 ± 0.034; (genetic background: wild type) 0.652 ± 0.026.
In the same order, the values of GFIRGSNKFAEV [SMC3 C-terminal 12 aa] are 0.6866 ± 0.0044 and 0.6658 ± 0.0058.
For GFQTGSASKASA [RPL37A C-terminal 12 aa], the protein stability index was found to be 0.71864 ± 0.00033 under setting [1] and 0.712 ± 0.019 (genetic background: wild type).
In the same order, the values of GIVYDFHKSDMY [LSM1 C-terminal 12 aa] are 0.683 ± 0.036 and 0.696 ± 0.043.
Regarding GKDITDQPCIDL [SSP2 C-terminal 12 aa], the protein stability index amounted to 0.7054 ± 0.00083 under setting [1] and 0.725 ± 0.058 (genetic background: wild type).
Regarding GKTAADNIAKLY [OSM1 C-terminal 12 aa], the protein stability index runs as follows: under setting [1], 0.6764 ± 0.004; (genetic background: wild type) 0.619 ± 0.02.
The corresponding values for GLCLCCTLDMLF [YDL012C C-terminal 12 aa] are 0.676 ± 0.014 and 0.6621 ± 0.0026.
The corresponding values for GLLMAGKASEFQ [VMA16 C-terminal 12 aa] are 0.694 ± 0.013 and 0.72 ± 0.035.
In the same order, the values of GMLYALYIVLQD [PMP3 C-terminal 12 aa] are 0.301 ± 0.0097 and 0.32 ± 0.0081.
Take GNAIREIKTYKY [GLY1 C-terminal 12 aa]: the protein stability index runs as follows: under setting [1], 0.687 ± 0.035; (genetic background: wild type) 0.658 ± 0.052.
For GPSDDDEEDDKK [YGL242C C-terminal 12 aa], the protein stability index by setting is: under setting [1], 0.643 ± 0.043; (genetic background: wild type) 0.675 ± 0.07.
In the same order, the values of GPTIPISATIRE [RCK2 C-terminal 12 aa] are 0.65756 ± 0.00065 and 0.735 ± 0.021.
The corresponding values for GPYWKRVLDFWC [GNP1 C-terminal 12 aa] are 0.752 ± 0.012 and 0.739 ± 0.029.
As for GPYWKRVVAFWC [AGP1 C-terminal 12 aa], the protein stability index reads like this: under setting [1], 0.734 ± 0.017; (genetic background: wild type) 0.549 ± 0.011.
“GRNKIYILFNVL [YMR030W-A C-terminal 12 aa]”: the protein stability index amounted to 0.6466 ± 0.0047 under setting [1] and 0.116 ± 0.0082 (genetic background: wild type).
Consider GRVDFQSTSKFT [AIM24 C-terminal 12 aa], for which the protein stability index under setting [1] was 0.702 ± 0.036 and the protein stability index (genetic background: wild type) was 0.7036 ± 0.0061.
The corresponding values for GTAASEPTPITK [ATP15 C-terminal 12 aa] are 0.7295 ± 0.0065 and 0.681 ± 0.017.
With GTKMEWFFDPLA [IPT1 C-terminal 12 aa], the protein stability index by setting is: under setting [1], 0.732 ± 0.025; (genetic background: wild type) 0.701 ± 0.0081.
For the sequence GTMKVDSWEPVD [ACH1 C-terminal 12 aa], the protein stability index was 0.7 ± 0.013 under setting [1] and 0.6829 ± 0.0049 (genetic background: wild type).
In the same order, the values of GTVNYAGLHDEL [SED4 C-terminal 12 aa] are 0.687 ± 0.034 and 0.723 ± 0.044.
The corresponding values for GVRKEFYELKRD [PRE7 C-terminal 12 aa] are 0.69519 ± 5.6e-05 and 0.693 ± 0.054.
Turning to GYKDRFGNLNVM [ATP7 C-terminal 12 aa], the protein stability index runs as follows: under setting [1], 0.7037 ± 0.0041; (genetic background: wild type) 0.687 ± 0.02.
In the same order, the values of GYQRGLDEFNKY [MRX18 C-terminal 12 aa] are 0.7148 ± 0.0013 and 0.681 ± 0.04.
For HEKPHTVSLRHK [CPR4 C-terminal 12 aa], the protein stability index reads like this: under setting [1], 0.717 ± 0.013; (genetic background: wild type) 0.721 ± 0.035.
The corresponding values for HENSKCFTHYLI [AFR1 C-terminal 12 aa] are 0.684 ± 0.035 and 0.6605 ± 0.0065.
With HERKRNKVLNTT [CMR3 C-terminal 12 aa], the protein stability index under setting [1] amounted to 0.704 ± 0.021 and the protein stability index (genetic background: wild type) stood at 0.661 ± 0.043.
HFYDRTNDLTNL [YNL144C C-terminal 12 aa]: the protein stability index reads like this: under setting [1], 0.736 ± 0.024; (genetic background: wild type) 0.68 ± 0.039.
Consider “HIFEKKIFHTNL [YOL097W-A C-terminal 12 aa]”, for which the protein stability index is 0.706 ± 0.018 under setting [1] and 0.65 ± 0.027 (genetic background: wild type).
HLAQMKMEQLLK [APQ12 C-terminal 12 aa]: the protein stability index was 0.678 ± 0.015 under setting [1] and 0.67 ± 0.014 (genetic background: wild type).
In the same order, the values of “HLCWLRCACDGP [YLR154C-G C-terminal 12 aa]” are 0.716 ± 0.0083 and 0.699 ± 0.022.
The corresponding values for HLSMVCDLELQL [NGL2 C-terminal 12 aa] are 0.738 ± 0.072 and 0.659 ± 0.045.
The corresponding values for HNLESLVVAFNE [SPO16 C-terminal 12 aa] are 0.6872 ± 0.003 and 0.717 ± 0.064.
HPTSAEELVTMR [GLR1 C-terminal 12 aa]: the protein stability index by setting is: under setting [1], 0.7175 ± 0.007; (genetic background: wild type) 0.693 ± 0.071.
Turning to HYPLNSIPFTVT [YMR326C C-terminal 12 aa], the protein stability index reads like this: under setting [1], 0.706 ± 0.019; (genetic background: wild type) 0.775 ± 0.087.
In the same order, the values of IADELDWLKFGI [GLN3 C-terminal 12 aa] are 0.906 ± 0.028 and 0.882 ± 0.019.
In the same order, the values of ICAWLLFFETIH [BST1 C-terminal 12 aa] are 0.458 ± 0.018 and 0.521 ± 0.059.
In the same order, the values of IDIPVQVKNSFI [YNR068C C-terminal 12 aa] are 0.711 ± 0.017 and 0.706 ± 0.051.
For IDLSKKLSFYNY [GMH1 C-terminal 12 aa], the protein stability index reads like this: under setting [1], 0.685 ± 0.043; (genetic background: wild type) 0.554 ± 0.0067.
On to IDNVIISGKDEY [CCT5 C-terminal 12 aa], for which the protein stability index runs as follows: under setting [1], 0.7033 ± 0.0056; (genetic background: wild type) 0.6529 ± 0.0048.
In the same order, the values of IDSLIENLRFQI [DBF4 C-terminal 12 aa] are 0.7414 ± 0.0037 and 0.678 ± 0.049.
In the same order, the values of IEELLAGIRMSI [BIT61 C-terminal 12 aa] are 0.719 ± 0.028 and 0.706 ± 0.037.
For IEHVKYDNIVSP [UBC12 C-terminal 12 aa], the protein stability index was determined as 0.6974 ± 0.0012 under setting [1] and 0.675 ± 0.011 (genetic background: wild type).
As for “IFMCIILANKHF [YFR052C-A C-terminal 12 aa]”, the protein stability index runs as follows: under setting [1], 0.342 ± 0.02; (genetic background: wild type) 0.22 ± 0.009.
“IFQSAISKAIRG [YBR109W-A C-terminal 12 aa]” displayed a protein stability index under setting [1] of 0.6726 ± 0.0032 and a protein stability index (genetic background: wild type) of 0.682 ± 0.0053.
The corresponding values for IFRDYFYKSPSP [PIG1 C-terminal 12 aa] are 0.739 ± 0.0098 and 0.763 ± 0.034.
As to IFSSLVHYCNAG [LST4 C-terminal 12 aa], the protein stability index is 0.729 ± 0.013 under setting [1] and 0.73 ± 0.0085 (genetic background: wild type).
The corresponding values for IFWLALIYNAIQ [LOH1 C-terminal 12 aa] are 0.479 ± 0.016 and 0.43 ± 0.027.
Take IGDFFKNLNMAK [NUP159 C-terminal 12 aa]: the protein stability index worked out at 0.715 ± 0.026 under setting [1] and 0.743 ± 0.054 (genetic background: wild type).
In the same order, the values of IGGLLKPSELDD [CRM1 C-terminal 12 aa] are 0.726 ± 0.032 and 0.696 ± 0.033.
In the same order, the values of IGWSVFAEWLCV [CYK3 C-terminal 12 aa] are 0.504 ± 0.02 and 0.5137 ± 0.003.
Consider IHRSVSELSRLH [MBB1 C-terminal 12 aa], for which the protein stability index is 0.705 ± 0.023 under setting [1] and 0.689 ± 0.025 (genetic background: wild type).
IHSTKEEKNCNH [YDR095C C-terminal 12 aa]: the protein stability index by setting is: under setting [1], 0.712 ± 0.017; (genetic background: wild type) 0.683 ± 0.029.
As to IIAIVFKILSPN [FAR10 C-terminal 12 aa], the protein stability index under setting [1] is 0.32 ± 0.023 and the protein stability index (genetic background: wild type) was 0.347 ± 0.031.
The corresponding values for IIFVVLLCKKSR [ASG7 C-terminal 12 aa] are 0.299 ± 0.019 and 0.309 ± 0.019.
In the same order, the values of IIQQNLKKIGII [GPA1 C-terminal 12 aa] are 0.696 ± 0.02 and 0.195 ± 0.011.
The corresponding values for IITGSTSTSSSN [MED8 C-terminal 12 aa] are 0.671 ± 0.017 and 0.7067 ± 0.00076.
For the sequence IKELENSRHEQS [MNN1 C-terminal 12 aa], the protein stability index runs as follows: under setting [1], 0.713 ± 0.049; (genetic background: wild type) 0.6866 ± 7.9e-05.
In the same order, the values of IKPSAEVHINAL [VMA10 C-terminal 12 aa] are 0.686 ± 0.011 and 0.743 ± 0.092.
Take IKPSWENEKNIS [ARG2 C-terminal 12 aa]: the protein stability index is 0.69 ± 0.02 under setting [1] and 0.684 ± 0.028 (genetic background: wild type).
In the same order, the values of ILGAYLIDCVCC [YGL069C C-terminal 12 aa] are 0.576 ± 0.045 and 0.644 ± 0.1.
ILGNMEKKKNQD [EPS1 C-terminal 12 aa]: the protein stability index under setting [1] is 0.733 ± 0.021 and the protein stability index (genetic background: wild type) stood at 0.751 ± 0.013.
In the same order, the values of ILWLKLEKRIEN [YLR339C C-terminal 12 aa] are 0.711 ± 0.025 and 0.703 ± 0.01.

(Values after the supplement of paper PMC10724198.)
